Data as given in patent publication US20250043290A1, “RNA SEQUENCES THAT INDUCE FLUORESCENCE OF SMALL MOLECULE FLUOROPHORES, MOLECULAR COMPLEXES, SENSORS, AND METHODS OF USE THEREOF” (CORNELL UNIVERSITY, priority 2021, published 2025).
“Also recorded” adds a separate entry of the source.

Tests used:
[1] = Photophysical properties of fluorophores and RNA-fluorophore complexes (Squash study); format: physicochemical
Procedure, shortened: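 Gel-purified RNAs in 40 mM HEPES-KOH pH 7.4, 100 mM KCl, 0.5 mM MgCl2, with RNA in excess over fluorophore for absorption, excitation and emission spectra. Quantum yields used 10 μM RNA and 0.2 μM fluorophore, from integrated emission versus Broccoli-DFHBI-1T or Corn-DFHO.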

[2] = Dissociation constant of RNA-fluorophore complex, titration with DFHBI-1T; format: binding; details: 50 nM RNA, one-site saturation model
Protocol: (§1) FIGS. 7A-7H provide photophysical and biophysical characterization of Squash. […] Excess RNA was used to ensure binding of nearly all fluorophore. […] Data represent mean values±s.d. for n=3 independent experiments. […] The fluorescence signal trace was fitted with a monoexponential curve to extract kobs. kobs was plotted as a function of total RNA (50 nM RNA) and fluorophore concentration. kon and koff were extracted as the slope and intercept, respectively. Squash koff (0.014±0.008 s^−1) is very similar to that of Corn (0.018±0.002 s^−1). kon for Squash-DFHO (162300±8100 M^−1 s^−1) is seven-times higher than Corn-DFHO (23000±3000 M^−1 s^−1) which could be due to the high folding of Squash. […]
Dissociation constants (Kd) for the RNA-fluorophore complexes were determined as described previously (Paige et al., “RNA Mimics of Green Fluorescent Protein,” Science 333:642-646 (2011) and Filonov et al., “Broccoli: Rapid Selection of an RNA Mimic of Green Fluorescent Protein by Fluorescence-Based Selection and Directed Evolution,” J. Am. Chem. Soc. 136: 16299-16308 (2014), which are hereby incorporated by reference in their entirety). In brief, the RNA aptamer at a fixed concentration (50 nM) was titrated with increasing fluorophore concentration and the resulting increase in fluorescence was recorded. […]

[3] = Potassium-dependence assay; format: physicochemical; details: buffers with K+, Na+ or Li+
Protocol: For potassium-dependence assay, separate buffers were prepared for K^+, Na^+ and Li^+. HEPES solution was neutralized with KOH, NaOH or LiOH to generate a 1 M solution (pH 7.4). RNA (1 μM final) was diluted in a buffer containing 40 mM HEPES (pH 7.4) and 0.5 mM MgCl2. Then the salts (KCl, NaCl or LiCl) were added to a final concentration of 100 mM to the corresponding solutions. Finally, DFHBI-1T or DFHO was added to the RNA solution at a final concentration of 10 μM and incubated for 20 minutes. The fluorescence was measured on a FluoroMax-4 fluorimeter.

[4] = On and off rates of aptamer binding to DFHO; details: 50 nM RNA
Protocol: as §1
To measure on and off rates of Squash binding to DFHO, the same protocol that was reported previously to measure kinetic rates for Spinach-DFHBI was used (Han et al., “Understanding the Photophysics of the Spinach-DFHBI RNA Aptamer-Fluorogen Complex to Improve Live-Cell RNA Imaging,” J. Am. Chem. Soc. 135:19033-19038 (2013), which is hereby incorporated by reference in its entirety). Briefly, 50 nM RNA was mixed with different amounts of DFHO and binding kinetics was monitored on the fluorimeter as fluorescence signal increases. Each fluorescence signal trace was fitted with a monoexponential curve and the observed rate constant (kobs) was extracted. […]

B1: Squash: fluorogenic RNA aptamer evolved from the add A-riboswitch aptamer, binds DFHBI-1T and DFHO; SEQ ID NO: 12 (SEQ ID NO: 1) (nucleic acid)
chain: AGGUGAGCCCAAUAAUACGGUUUGGGUUAGGAUAGGAAGUAGAGCCGUAAACUCUCUAAGCG
modifications: RNA, backbone not given here
- Quantum yield with DFHBI-1T [1]: 0.71
- Quantum yield with DFHO [1]: 0.60
- Emission maxima with DFHO ([1]; 10 μM RNA, 1 μM DFHO): 562 nm
- Abs max in complex with DFHBI-1T ([1]; 50 μM RNA, 5 μM DFHBI-1T): 450 nm
- Kd [2]: 45 nM
- Fluorescence dependence on K+ [3]: fluorescent in K^+-free buffers; also recorded: not dependent on potassium
- koff [4]: 0.014 ± 0.008 s⁻¹
